Source: IntAct's records for PubMed 12802020

B1: Tumor susceptibility gene 101 protein (Homo sapiens), Q99816 (parent)
chain: MAVSESQLKKMVSKYKYRDLTVRETVNVITLYKDLKPVLDSYVFNDGSSRELMNLTGTIPVPYRGNTYNIPICLWLLDTYPYNPPICFVKPTSSMTIKTGKHVDANGKIYLPYLHEWKHPQSDLLGLIQVMIVVFGDEPPVFSRPISASYPPYQATGPPNTSYMPGMPGGISPYPSGYPPNPSGYPGCPYPPGGPYPATTSSQYPSQPPVTTVGPSRDGTISEDTIRASLISAVSDKLRWRMKEEMDRAQAELNALKRTEEDLKKGHQKLEEMVTRLDQEVAEVDKNIELLKKKDEELSSALEKMENQSENNDIDEVIIPTAPLYKQILNLYAEENAIEDTIFYLGEALRRGVIDLDVFLKHVRLLSRKQFQLRALMQKARKTAGLSDLY

Variants of: B1
Conditions: with hgs_human HGS

Variant | effect of a mutation on the interaction
MAVSESQLKKMVSKYKYRDLTVRETVNVITLYKDLKPVLDSYVFADGSSRELMNLTGTIPVPYRGNTYNIPICLWLLDTYPYNPPICFVKPTSSMTIKTGKHVDANGKIYLPYLHEWKHPQSDLLGLIQVMIVVFGDEPPVFSRPISASYPPYQATGPPNTSYMPGMPGGISPYPSGYPPNPSGYPGCPYPPGGPYPATTSSQYPSQPPVTTVGPSRDGTISEDTIRASLISAVSDKLRWRMKEEMDRAQAELNALKRTEEDLKKGHQKLEEMVTRLDQEVAEVDKNIELLKKKDEELSSALEKMENQSENNDIDEVIIPTAPLYKQILNLYAEENAIEDTIFYLGEALRRGVIDLDVFLKHVRLLSRKQFQLRALMQKARKTAGLSDLY [N45A] | decreasing interaction strength
MAVSESQLKKMVSKYKYRDLTVRETVNVITLYKDLKPVLDSYVFNDGSSRELMNLTGTIPVPARGNTYNIPICLWLLDTYPYNPPICFVKPTSSMTIKTGKHVDANGKIYLPYLHEWKHPQSDLLGLIQVMIVVFGDEPPVFSRPISASYPPYQATGPPNTSYMPGMPGGISPYPSGYPPNPSGYPGCPYPPGGPYPATTSSQYPSQPPVTTVGPSRDGTISEDTIRASLISAVSDKLRWRMKEEMDRAQAELNALKRTEEDLKKGHQKLEEMVTRLDQEVAEVDKNIELLKKKDEELSSALEKMENQSENNDIDEVIIPTAPLYKQILNLYAEENAIEDTIFYLGEALRRGVIDLDVFLKHVRLLSRKQFQLRALMQKARKTAGLSDLY [Y63A] | decreasing interaction

The remaining lines, values ahead:

effect of a mutation on the interaction | Variant
increasing interaction strength | MAVSESQLKKMVSKYKYRDLTVRETVNVITLYKDLKPVLDSYVFNDGSSRELMNLTGTIPVPYRGNTYNIPICLWLLDTYPYNPPICFVKPTSSMTIKTGKHVDANGKIYLPYLHEWKHPQSDLLGLIQVMIVVFGDEPPVFSRPISASYPPYQATGPPNTSYMPGMPGGISPYPSGYPPNPSGYPGCPYPPGGPYPATTSSQYPSQPPVTTVGPSRDGTISEDTIRASLISAVSDKLRWRMKEEMDRAQAELNALKRTEEDLKKGHQKLEEMVTRLDQEVAEVDKNIELLKKKDEELSSALEKMENQSENNDIDEVIILTALLYKQILNLYAEENAIEDTIFYLGEALRRGVIDLDVFLKHVRLLSRKQFQLRALMQKARKTAGLSDLY [P320L;P323L]
decreasing interaction strength | MAVSESQLKKMVSKYKYRDLTVRETVNVITLYKDLKPVLDSYVFNDGSSRELMNLTGTIPVPYRGNTYNIPICLWLLDTYPYNPPICFVKPTSSATIKTGKHVDANGKIYLPYLHEWKHPQSDLLGLIQVMIVVFGDEPPVFSRPISASYPPYQATGPPNTSYMPGMPGGISPYPSGYPPNPSGYPGCPYPPGGPYPATTSSQYPSQPPVTTVGPSRDGTISEDTIRASLISAVSDKLRWRMKEEMDRAQAELNALKRTEEDLKKGHQKLEEMVTRLDQEVAEVDKNIELLKKKDEELSSALEKMENQSENNDIDEVIIPTAPLYKQILNLYAEENAIEDTIFYLGEALRRGVIDLDVFLKHVRLLSRKQFQLRALMQKARKTAGLSDLY [M95A]
decreasing interaction strength | MAVSESQLKKMVSKYKYRDLTVRETVNVITLYKDLKPVLDSYVFNDGSSRELMNLTGTIPVPYRGNTYNIPICLWLLDTYPYNPPICFAKPTSSMTIKTGKHVDANGKIYLPYLHEWKHPQSDLLGLIQVMIVVFGDEPPVFSRPISASYPPYQATGPPNTSYMPGMPGGISPYPSGYPPNPSGYPGCPYPPGGPYPATTSSQYPSQPPVTTVGPSRDGTISEDTIRASLISAVSDKLRWRMKEEMDRAQAELNALKRTEEDLKKGHQKLEEMVTRLDQEVAEVDKNIELLKKKDEELSSALEKMENQSENNDIDEVIIPTAPLYKQILNLYAEENAIEDTIFYLGEALRRGVIDLDVFLKHVRLLSRKQFQLRALMQKARKTAGLSDLY [V89A]
